The numbers were not newly measured in patent US20250361227A1, “INHIBITORS OF FLI1 AND ERG” (UNIVERSITY OF VIRGINIA PATENT FOUNDATION, priority 2022, published 2025), which cites them from elsewhere.

The chains are these.
B1: 272-388: the auto-inhibited construct of ERG (272-388) (protein, UniProt P11308 272-388, looked up, fragment)
chain: AAQPSPSTVPKTEDQRPQLDPYQILGPTSSRLANPGSGQIQLWQFLLELLSDSSNSSCITWEGTNGEFKMTDPDEVARRWGERKSKPNMNYDKLSRALRYYYDKNIMTKVHGKRYAY
B2: 289-388: ERG truncation construct, residues 289-388 (protein, UniProt P11308 289-388, looked up, fragment)
chain: QLDPYQILGPTSSRLANPGSGQIQLWQFLLELLSDSSNSSCITWEGTNGEFKMTDPDEVARRWGERKSKPNMNYDKLSRALRYYYDKNIMTKVHGKRYAY
B3: 289-412: ERG truncation construct, residues 289-412 (protein, UniProt P11308 289-412, looked up, fragment)
chain: QLDPYQILGPTSSRLANPGSGQIQLWQFLLELLSDSSNSSCITWEGTNGEFKMTDPDEVARRWGERKSKPNMNYDKLSRALRYYYDKNIMTKVHGKRYAYKFDFHGIAQALQPHPPESSLYKYP
B4: 289-378: the uninhibited DNA binding domain construct of ERG (289-378) (protein, UniProt P11308 289-378, looked up, fragment)
chain: QLDPYQILGPTSSRLANPGSGQIQLWQFLLELLSDSSNSSCITWEGTNGEFKMTDPDEVARRWGERKSKPNMNYDKLSRALRYYYDKNIM
B5: 1-462: ERG construct, residues 1-462 (protein, UniProt P11308 1-462, looked up, fragment)
chain: MASTIKEALSVVSEDQSLFECAYGTPHLAKTEMTASSSSDYGQTSKMSPRVPQQDWLSQPPARVTIKMECNPSQVNGSRNSPDECSVAKGGKMVGSPDTVGMNYGSYMEEKHMPPPNMTTNERRVIVPADPTLWSTDHVRQWLEWAVKEYGLPDVNILLFQNIDGKELCKMTKDDFQRLTPSYNADILLSHLHYLRETPLPHLTSDDVDKALQNSPRLMHARNTGGAAFIFPNTSVYPEATQRITTRPDLPYEPPRRSAWTGHGHPTPQSKAAQPSPSTVPKTEDQRPQLDPYQILGPTSSRLANPGSGQIQLWQFLLELLSDSSNSSCITWEGTNGEFKMTDPDEVARRWGERKSKPNMNYDKLSRALRYYYDKNIMTKVHGKRYAYKFDFHGIAQALQPHPPESSLYKYPSDLPYMGSYHAHPQKMNFVAPHPPALPVTSSSFFAAPNPYWNSPTGGIYP
B6: 272-378: ERG truncation construct, residues 272-378 (protein, UniProt P11308 272-378, looked up, fragment)
chain: AAQPSPSTVPKTEDQRPQLDPYQILGPTSSRLANPGSGQIQLWQFLLELLSDSSNSSCITWEGTNGEFKMTDPDEVARRWGERKSKPNMNYDKLSRALRYYYDKNIM
B7: 272-412: ERG truncation construct, residues 272-412 (protein, UniProt P11308 272-412, looked up, fragment)
chain: AAQPSPSTVPKTEDQRPQLDPYQILGPTSSRLANPGSGQIQLWQFLLELLSDSSNSSCITWEGTNGEFKMTDPDEVARRWGERKSKPNMNYDKLSRALRYYYDKNIMTKVHGKRYAYKFDFHGIAQALQPHPPESSLYKYP
B8: 210-462: ERG truncation construct, residues 210-462 (protein, UniProt P11308 210-462, looked up, fragment)
chain: KALQNSPRLMHARNTGGAAFIFPNTSVYPEATQRITTRPDLPYEPPRRSAWTGHGHPTPQSKAAQPSPSTVPKTEDQRPQLDPYQILGPTSSRLANPGSGQIQLWQFLLELLSDSSNSSCITWEGTNGEFKMTDPDEVARRWGERKSKPNMNYDKLSRALRYYYDKNIMTKVHGKRYAYKFDFHGIAQALQPHPPESSLYKYPSDLPYMGSYHAHPQKMNFVAPHPPALPVTSSSFFAAPNPYWNSPTGGIYP

In this series the target is DNA. To be noted: ITC, ERG construct binding to DNA; ±SE in cell beside; cited from earlier work. On the technique in general: Isothermal titration calorimetry measures the heat released or taken up as one component is titrated into another.
Consider B1, for which the dissociation constant (Kd) is 176 nM.
In the case of B2, the Kd was 41 nM.
With B3, the dissociation constant (Kd) is 51 nM.
B4: the dissociation constant Kd is 37 nM.
For the molecule B5, the Kd was 121 nM.
Regarding B6, the Kd was 33 nM.
Consider B7, for which the Kd was 101 nM.
For B8, the Kd was 104 nM.

What is called Kd is the concentration at which binding is half-saturated.
